From the DeepSol protein solubility set

Experiment: soluble on expression in E. coli; label from the status in PepcDB or PDB records

Row | Sequence | soluble on expression in E. coli
1 | MSKKLTTAAGCPVAHNQNVQTAGKRGPQLLQDVWFLEKLAHFDREVIPERRMHAKGSGAYGTFTVTHDITKYTKAKIFSDIGKKTDMFARFSTVAGERGAADAERDIRGFSLKFYTEEGNWDLAGNNTPVFFLRDPLKFPDLNHAVKRDPRTNMRSAKNNWDFWTSLPEALHQVTIVMSDRGIPATYRHMHGFGSHTFSFINSDNERYWVKFHFVSQQGIKNLSDAEAGELVGNDRESHQRDLLDSIDNQDFPKWTLKVQIMPEADAATVPYNPFDLTKVWPHKDYPLIEVGEFELNRNPQNYFAEVEQAAFNPANVVPGISFSPDKMLQGRLFAYGDAQRYRLGVNHQHIPVNAPRCPVHSYHRDGAMRVDGNFGSTLGYEPNDQGQWAEQPDFSEPPLNLDGAAAHWDHREDEDYFSQPGDLFGLMTAEKQAILFDNTARNLNGVPKEIQLRHVTHCYKADPAYGEGIGKLLGFDISEYNS | soluble
2 | MINRNEEQNFNKLSEVINEYNKLQISQQIDYDKFYLYSIITHSTAIEGSTITEIENQLLFDEGISANKPIHEQLMNLDLKAAYEKSFELAKQHTQITPEILCELSVLVMKNTGTVYNTIGGTFSSAKGELRLVNVSAGRGGKSYMAWQKLPQKLEEFCSWLNSERKSIAEKDIEAQYAFSFLAHYKLVHIHPWADGNGRMSRLLMNVIQYEAGLVPAIIKKENRAEYIQSLASSQDKDDPAEFLHFMFSHHIRNLSEQIEEYKNSLEMSGS | not soluble
3 | MRGSHHHHHHGSLMPGGKEFYNFYPEYVVGLQWMGDNYVFIEGDDLVFNKANGKSAQTTRFSAADLNALMPEGCKFQTTDAFPSFRTLDAGRGLVVLFTQGGLVGFDMLARKVTYLFDTNEETASLDFSPVGDRVAYVRNHNLYIARGGKLGEGMSRAIAVTIDGTETLVYGQAVHQREFGIEKGTFWSPKGSCLAFYRMDQSMVKPTPIVDYHPLEAESKPLYYPMAGTPSHHVTVGIYHLATGKTVYLQTGEPKEKFLTNLSWSPDENILYVAEVNRAQNECKVNAYDAETGRFVRTLFVETDKHYVEPLHPLTFLPGSNNQFIWQSRRDGWNHLYLYDTTGRLIRQVTKGEWEVTNFAGFDPKGTRLYFESTEASPLERHFYCIDIKGGKTKDLTPESGMHRTQLSPDGSAIIDIFQSPTVPRKVTVTNIGKGSHTLLEAKNPDTGYAMPEIRTGTIMAADGQTPLYYKLTMPLHFDPAKKYPVIVYVYGGPHAQLVTKTWRSSVGGWDIYMAQKGYAVFTVDSRGSANRGAAFEQVIHRRLGQTEMADQMCGVDFLKSQSWVDADRIGVHGWAYGGFMTTNLMLTHGDVFKVGVAGGPVIDWNRYEIMYGERYFDAPQENPEGYDAANLLKRAGDLKGRLMLIHGAIDPVVVWQHSLLFLDACVKARTYPDYYVYPSHEHNVMGPDRVHLYETITRYFTDHL | soluble
4 | TIKNFTFFSPNSTEFPVGSNNDGKLYMMLTGMDYRTIRRKDWSSPLNTALNVQYTNTSIIAGGRYFELLNETVALKGDSVNYIHANIDLTQTANPVSLSAETANNSNGVDINNGSGVLKVCFDIVTTSGTGVTSTKPIVQTSTLDSISVNDMTVSGSIDVPVQTLTVEAGNGLQLQLTKKNNDLVIVRFFGSVSNIQKGWNMSGTWVDRPFRPAAVQSLVGHFAGRDTSFHIDINPNGSITWWGANIDKTPIATRGNGSYFIKSAW | soluble
5 | MKPLKEYLLIPTQMRVFETQTQAIETSLSVNAQTSESSEAFTVKKDPHEIKVTGKKSGESELVYDLAGFPIKKTKVHVLPDLKVIPGGQSIGVKLHSVGVLVGFHQINTSEGKKSPGETAGIEAGDIIIEMNGQKIEKMNDVAPFIQKAGKTGESLDLLIKRDKQKIKTKLIPEKDEGEGKYRIGLYIRDSAAGIGTMTFYEPKTKKYGALGHVISDMDTKKPIVVENGEIVKSTVTSIEKGTGGNPGEKLARFSSERKTIGDINRNSPFGIFGTLHQPIQNNISDQALPVAFSTEVKKGPAEILTVIDDDKVEKFDIEIVSTTPQKFPATKGMVLKITDPRLLKETGGIVQGMSGSPIIQNGKVIGAVTHVFVNDPTSGYGVHIEWMLSEAGIDIYGKEKASLEHHHHHH | not soluble
6 | MGSDKIHHHHHHENLYFQGMYPDLVHLGGADKYFEEILEIVNKIKLFGDFSNEEVRYLCSYMQCYAAPRDCQLLTEGDPGDYLLLILTGEVNVIKDIPNKGIQTIAKVGAGAIIGEMSMIDGMPRSASCVASLPTDFAVLSRDALYQLLANMPKLGNKVLIRLLQLLTARFRESYDRILPKTLGELI | soluble
7 | MAHHHHHHLRCAPSKLFRATPLLRVWAAEEDDASAPRTTFRNVRPGRLLRLWRQMRHRAWMLYAWDEEWVSPMQEGYLHQQRLEQVCFAPLSAYGVVPGSYCDPLLYNTKRTSPFRWHVANVQGDVVGHWYMDADELFRIEDWQPREPDDPLEMFPRPPPMLLRWDESVDEHGNRAFRYRYHYDMMGPTGKWEAYPRCPFSHLYHGGPDQHGRAEGYGFQQGHLLRCDEAEEEVLRRIMEGEDREWEMVKRTEAVQEPWSYPGKIRPRDFEGAVEHAKARYRERVRHGKETDPSEDPEYDLVQASEYVEPRDGRRAEWRHLWASGRKPGESLPFHVAFNDGLCFEGNEGGPPAHPAAHYEATPKGAPYGRYEDADAAAARAAEAAHNAACEQSLSEAMARHRRLFGDTSGAPSGPKAPLPTGCRPMRCAPGPPLPSGRSRSSGARAVGSGPVCGAGARDGESEGEGRGGEAPLGYGARACSWRRREGWV | soluble
8 | MDQKGILRFHEELASLVLKMRSKGIDDVRFFTALEKIPRQQFVSSPWFKSAYDNKVIPIECGEYIERLEEQLLILYALSLKKKHRVLEIGTGSGFCTAFMACLSDRVITVDRYKTLVDLARQKFQTLGIENIVVRQIDGSRIITGFGSFDRILIWPSRSDEPKEFLELLTENGILIQAIGPDEGVQTITRYTKIASRFECLEMFQVRYQPFIEGIAETL | not soluble
9 | MGSSHHHHHHGGTGENLYFQGGSGAKKHLKRLYAPKDWMLSKLTGVFAPRPRPGPHKLRECLPLLVIIRNRLKYALNAREGEMILRQGLVHVDNHPRRDGKYPAGFMDVVEIPKTGDRFRLMYDVKGRFALVNLSEAEAQIKLMKVVNLYTATGRVPVAVTHDGHRIRYPDPHTSIGDTIVYNVKEKKCVDLIKNRQGKAVIVTGGANRGRIGEIVKVECHPGAFNIAHLKDASGAEFATRAANIFVIGKDLNNLQVTVPKQQGLRMNVIQEREERLIAAEARKNAPARGARRARK | soluble
10 | IFPFKEPPMALEKHGTCLCGDTRLTVTVDNTHISACHCSMCRKWTGGPLLVVHCSKPPLIEGRAPSVYDSSDWAQRAFCGRCGTHLYYRLKANDFHAVPVGLLDGDQAWDFDLQIFVEEKPAWYCFANQTKELSGQE | not soluble
11 | MNVLIVDDEPLARERLSRMVNEIEGYRVLEDSASNGEEALALIEKHKPDVVLLDIRMPGIDGLQVAAKLCEREAPPAVVFCTAHDEFALEAFQVSAVGYLVKPVRAEHLIEALKKAERPNRVQLAAMTRPAAESGSGPRTHISARTRKGIELIPLDQVIYFIADHKYVTLRHEGGEVLLDEPLKALEDEFGDRFVRIHRNALVARKRIESMKRTPVGHFELFLRGLNGDALIVSRRHVAGVRKMMQQL | soluble
12 | TKAVHTKHAPAAIGPYSQGIIVNNMFYSSGQIPLTPSGEMVNGDIKEQTHQVFSNLKAVLEEAGASFETVVKATVFIADMEQFAEVNEVYGQYFDTHKPARSCVEVARLPKDALVEIEVIALVK | soluble
13 | MDQEIKSLELNITQLSAITGAHRQTIASRLKGVKTSGGNGSNLKIYRLVDILTAMMTMPAVTGENDPNKMKPSDRRAWFQSEMTRIELEKEMRTLIPASEVLSVYAVMAKTVVKTLEILPDLLERDAALPPDALEMTQKIIDQLREDLASMTYQACADAINGDDDDNGDEGQEEEQE | not soluble
14 | MSLKAPYTIGWANIYSVPTWMKQTEGTITAEVEELKKAGLVRDLMITDAQGNAQTQIQHIQSMIDANVDAIVVIAGSSNALDRVISDACDKGIAVVNFDSLVNTDKVTAKINTDSNEWGATAAKWMVSQLGGKGKIIIMNGPAGISVSDDRRKGAQPVLDANPGLQVITETNTEYNVAPAQEAMTSLLFANPEIDGVLSLGGALSAGSVLAFERQGRDQVPTTGENARQFLELWKEKGLKGWATMQPNWLGALSVYTAVQALEGKDVPAFVKVPLPVIDDSTIGSYLARADKFPADGYIYSDYDKALFDKLLATKEGHHHHHH | soluble
